In this data set the test system is MS2 coat protein. As to the kind of experiment: apparent KD of MS2 coat protein; designed switch direction (-1 OFF switch, 1 ON switch): 1; higher = weaker reporter binding. The procedure, abridged: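 Three titration conditions were used: no input, 200 uM small-molecule ligand, and an oligonucleotide input. In each, SNAP-549-labelled MS2 coat protein was raised from 0.7 or 1.5 nM, doubling, to 3 µM over designed RNA switches transcribed on Illumina chips by stalled E. coli RNA polymerase. Curve fits of normalised cluster fluorescence gave values whose per-design median over clusters is the apparent KD.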

[1] abbreviates: Eterna round: R95, input ligand: FMN 200 uM.
The mark [2] stands for this setting: Eterna round: R95, input ligand: microRNA oligo, concentration not stated.
The mark [3] stands for this setting: Eterna round: R95, input ligand: none.

Take “AUAAAACAUGAGGAUCACCCAUGUCAAAAGACAUGAGGAUAUGUGCAAAUAAAAUAAGAAACAGAAGGCAUGAAAA [salish99_ss1_r3_103] (puzzle: Same State 1)”: the “apparent KD of MS2 coat protein” value under setting [1] was 98 nM, the “apparent KD of MS2 coat protein” value under setting [2] stood at 105 nM and the “apparent KD of MS2 coat protein” value under setting [3] worked out at 222 nM.

With “AUAAAACAUGAGGAUCACCCAUGUCAACAAAGUCGAGGAUAUGGGCAAAUAAAAUAAGAACCAGAAGGCUAAUAAU [salish99_ss1_r3_052] (puzzle: Same State 1)”, the “apparent KD of MS2 coat protein” value reads like this: under setting [1], 246 nM; under setting [2], 378 nM; under setting [3], 375 nM.

“AUAAAACAUGAGGAUCACCCAUGUCAACAAAGUUGAGGAUAUGGGCAAAUAAAAUAAGAACCAGAAGGCGAAUAAU [salish99_ss1_r3_033] (puzzle: Same State 1)”: the “apparent KD of MS2 coat protein” value by setting is: under setting [1], 429 nM; under setting [2], 193 nM; under setting [3], 546 nM.

Turning to “AUAACACCGGCAGGAUAUGGGAAAGGAAGUGUACCAGAAGGGCCGGAACGGCGAUGGACAUGAGGAUCACCCAUGUCUUAGCCU [PowerStrip SSNG 1.24] (Eterna round: R96, puzzle: Same State NG 1)”, the “apparent KD of MS2 coat protein” value stood at 13.7 nM (input ligand: FMN 200 uM); 11.6 nM (input ligand: microRNA oligo, concentration not stated); 17.3 nM (input ligand: none).

Consider “AUAAGGCAAGCUUUUUUCUCGUAGUGUAAACAUGAGGAUCACCCAUGUGCCCGCUCUGGAUCUUUGGAUCGCAGAAA [Lavegeaus] (puzzle: Sensor for hsa-mir-208a)”, for which the “apparent KD of MS2 coat protein” value under setting [1] turned out to be 26.6 nM, the “apparent KD of MS2 coat protein” value under setting [2] was 18.2 nM and the “apparent KD of MS2 coat protein” value under setting [3] came to 25.9 nM.

Regarding “AUAAGUCCGAUGCUCGUCUCUCCGUACAAACAUGAGGAUCACCCAUGUGAUCGGGAAGUAGCCCGAUCAGUAUGGCC [Erardius] (puzzle: Sensor for hsa-mir-208a)”, the “apparent KD of MS2 coat protein” value by setting is: under setting [1], 45.5 nM; under setting [2], 22.6 nM; under setting [3], 48.3 nM.

For “AUAAGUUCGAUGCUCGUCUCUCCGUACAAACAUGAGGAUCACCCAUGUGAUCGAGAAGUAGCCCGAUCAGUAUGGCC [Soainge] (puzzle: Sensor for hsa-mir-208a)”, the “apparent KD of MS2 coat protein” value is, setting by setting: under setting [1], 30.2 nM; under setting [2], 27 nM; under setting [3], 35.3 nM.

Turning to “AUAAGUUCGAUGCUCGUCUCUCCGUACAAACAUGAGGAUCACCCAUGUGAUCGGGAAGUAGCCCAAUCAGUAUGGCC [Oranlaen] (puzzle: Sensor for hsa-mir-208a)”, the “apparent KD of MS2 coat protein” value by setting is: under setting [1], 26.6 nM; under setting [2], 30 nM; under setting [3], 31.3 nM.

Take “AUAAGUUCGAUGCUCGUCUCUCCGUACUAACAUGAGGAUCACCCAUGUGGUCGGGAAGUAGCCCGACCAGUAUGGCC [Vearebe] (puzzle: Sensor for hsa-mir-208a)”: the “apparent KD of MS2 coat protein” value was 65.4 nM under setting [1], 53.3 nM under setting [2] and 82.1 nM under setting [3].

On to “AUAAGUUUGAUGCUCGUCUCUCCGUACAAACAUGAGGAUCACCCAUGUGGUCGGGAAGUAGCCCGGCCAGUAUGGCA [Arbitius] (puzzle: Sensor for hsa-mir-208a)”, for which the “apparent KD of MS2 coat protein” value by setting is: under setting [1], 43.3 nM; under setting [2], 17.9 nM; under setting [3], 47.3 nM.

As for “AUAAGUUUGAUGCUCGUCUCUCCGUACAAACAUGAGGAUCACCCAUGUGGUCGGGUAGUAGCCCGGCCAGUAUGGCC [Ribiesreri] (puzzle: Sensor for hsa-mir-208a)”, the “apparent KD of MS2 coat protein” value by setting is: under setting [1], 40.3 nM; under setting [2], 20.3 nM; under setting [3], 46 nM.

As for “AUAAGUUUGAUGCUCGUCUCUCCGUACUAACAUGAGGAUCACCCAUGUGGUCGGGAAGUAGCCCGGCCAGUAUGGCC [Lequteti] (puzzle: Sensor for hsa-mir-208a)”, the “apparent KD of MS2 coat protein” value under setting [1] came to 19.5 nM, the “apparent KD of MS2 coat protein” value under setting [2] came to 19.4 nM and the “apparent KD of MS2 coat protein” value under setting [3] came out at 19.3 nM.

The record behind these values is the supplement of paper PMC9170038.
